Source: the supplement of paper PMC10724198
± gives the standard deviation of the averaged measurements.

System: Saccharomyces cerevisiae
Assay: protein stability index of tFT-peptide fusion (C-terminal peptide) (PSI (0-1 scale)); higher = more stable (slower turnover)
Settings: genetic background: wild type; temperature: 30 C
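Further: PSI is a weighted mean of sequencing reads over stability bins, variants kept only with over 10 reads, mCherry proximal and sfGFP distal, peptide attached via GGGS linker.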

| Sequence | protein stability index |
| --- | --- |
| CCCVLMTFTSSP | 0.561 ± 0.044 |
| PPPTLSPPPPPL | 0.75 ± 0.034 |
| QTYQQSVKNRDD | 0.666 ± 0.061 |
| APSPRPSRPPPL | 0.671 ± 0.034 |
| SSDLTKKCNRLR | 0.673 ± 0.023 |
| VAVAAPVVRAVI | 0.69 ± 0.054 |
| ISIAATPHVSQP | 0.661 ± 0.054 |
| RVSLSHPDRCAG | 0.7264 ± 0.0025 |
| SGAPAQLSLSSL | 0.6568 ± 0.0032 |
| TFFSAPLLPSIP | 0.73783 ± 0.00011 |
| SLLPCAPHPRPV | 0.662 ± 0.074 |
| GEDGCGGSEAGG | 0.656 ± 0.028 |
| VGCGGGEFSLFG | 0.727 ± 0.034 |
| SVNWVWNSVFDR | 0.6826 ± 0.0024 |
| IRSLKTSPLMRG | 0.704 ± 0.043 |
| GTPWHLRPRCPF | 0.749 ± 0.013 |
| PYAFPPPPPPPP | 0.64 ± 0.032 |
| PFLPSPPPPVPI | 0.712 ± 0.045 |
| IYPPALLSSSFL | 0.709 ± 0.093 |
| ELLKQRTRKRQK | 0.693 ± 0.021 |
| PPAPLHLPSLPR | 0.705 ± 0.018 |
| PLPPTAPPHPPP | 0.671 ± 0.096 |
| IVCGMGDKGMHE | 0.698 ± 0.014 |
| KHKKKRTRDHEE | 0.666 ± 0.012 |
| GFCCLGGVRPSV | 0.655 ± 0.027 |
| LGSSGCVLVGWG | 0.683 ± 0.0084 |

| Sequence | protein stability index |
| --- | --- |
| RGWGGGRVAREC | 0.657 ± 0.026 |
| PLRPPRPPPPPF | 0.726 ± 0.052 |
| SKTEKELSNREF | 0.659 ± 0.025 |
| PPFTRLPPPLSS | 0.741 ± 0.062 |
| FFPITAWSGWDG | 0.669 ± 0.093 |
| LWVGVGRWLRGR | 0.744 ± 0.014 |
| ISVSRLRMKDRN | 0.713 ± 0.22 |
| GVARGFGVVVPA | 0.6427 ± 0.0044 |
| QPPAKSRETKYR | 0.741 ± 0.031 |
| SGFFGFLLGAYG | 0.5876 ± 0.0031 |
| DSVQALDGRAGI | 0.683 ± 0.046 |
| EYCIYYTQFGSF | 0.65 ± 0.1 |
| PPPSSLVPFPLP | 0.7295 ± 0.0053 |
| SRLQIRIRINEV | 0.572 ± 0.032 |
| ISMASRAGILRG | 0.686 ± 0.049 |
| CVVRADGVVGIL | 0.649 ± 0.012 |
| PHPLSPRPPPSL | 0.746 ± 0.013 |
| RKDEKRGTVIIA | 0.62 ± 0.021 |
| ILVGKIEGIVQE | 0.662 ± 0.025 |
| GGVGRRVRLGAE | 0.625 ± 0.037 |
| VVRCVLSQKCLV | 0.578 ± 0.015 |
| KKGACTQILQSL | 0.789 ± 0.19 |
| FNPPPLLLPPPP | 0.639 ± 0.013 |
| PPPGPSPPPSPH | 0.683 ± 0.074 |
| RDPTTYGRSKEN | 0.655 ± 0.023 |
| NALFGWMRGCLS | 0.724 ± 0.034 |

| Sequence | protein stability index |
| --- | --- |
| EKTKEKKAKKYG | 0.694 ± 0.027 |
| SLRQEFDAIFVG | 0.604 ± 0.039 |
| RRRGQDEGKQKR | 0.7511 ± 0.0059 |
| TPPPSSLVIFFI | 0.675 ± 0.11 |
| WGVCVIDSWQEG | 0.6706 ± 0.0032 |
| DSESSLPSLPHT | 0.682 ± 0.015 |
| SGPAVLPTFVSP | 0.65 ± 0.077 |
| GARGGGQSSFGE | 0.666 ± 0.012 |
| PQSSLPPLSTSS | 0.686 ± 0.011 |
| WCNLSFEDNYVT | 0.658 ± 0.018 |
| RCSDILGKGKHV | 0.661 ± 0.0084 |
| NRMLRAQRKNRT | 0.689 ± 0.033 |
| RLGWTTSEELWC | 0.657 ± 0.029 |
| GCPRSCYIPSSV | 0.72 ± 0.011 |
| ALKVMYMHTGKG | 0.62 ± 0.041 |
| ERKEPRIQQQTL | 0.67 ± 0.075 |
| LRLFAGTFSGTP | 0.698 ± 0.03 |
| KTGIQTEIRYKE | 0.63727 ± 0.00029 |
| PHPPFLFPPPCP | 0.71 ± 0.051 |
| WNQRMEPCLMSS | 0.65 ± 0.026 |
| PPPPPRAPSLLA | 0.704 ± 0.03 |
| SGLRQGRHVYPA | 0.682 ± 0.011 |
| GMVFGLAWCGCL | 0.619 ± 0.046 |
| VASKAGVLFGIR | 0.673 ± 0.12 |
| ALSVGGGSGSWY | 0.736 ± 0.014 |
| PPPDRLPPAHLP | 0.721 ± 0.029 |

| Sequence | protein stability index |
| --- | --- |
| ACPQPSPSPSQY | 0.672 ± 0.048 |
| LTGFYFFFDMTL | 0.6366 ± 0.0032 |
| LLNNNLNQRIYQ | 0.729 ± 0.019 |
| TIWLTFGRTPQS | 0.731 ± 0.042 |
| AGVRGWGIAVTP | 0.64 ± 0.046 |
| VAIRLLCSPLGK | 0.64 ± 0.029 |
| TLALQFPFKLLF | 0.653 ± 0.025 |
| PIDHCFPPIPRR | 0.737 ± 0.035 |
| PKVRQLLLTRVL | 0.547 ± 0.022 |
| PTLTTQPNVPLN | 0.723 ± 0.038 |
| PPICLCHDPAAH | 0.659 ± 0.013 |
| RRRGQLNTAEWK | 0.717 ± 0.065 |
| GFQIVCSAGERV | 0.611 ± 0.027 |
| PLCLLLLNPPTL | 0.682 ± 0.012 |
| SVSLVQRSVCLD | 0.71 ± 0.021 |
| VGFYRADSLLIF | 0.5763 ± 0.0049 |
| SRWHVCGWYKRR | 0.682 ± 0.016 |
| RYGYCVPNVMRS | 0.778 ± 0.11 |
| PSADRQSMRCRR | 0.631 ± 0.007 |
| QQQSTKHSEERV | 0.691 ± 0.014 |
| PVVKVCRPVFLD | 0.829 ± 0.13 |
| RGLLLSRRWFSP | 0.641 ± 0.099 |
| PGITRKTKKEKK | 0.701 ± 0.041 |
